Measurements from patent publication US20250163186A1 (PHYLAXIS BIOSCIENCE, published 2025).
Read-outs that look alike come from different tables or passages of the source. One block for each binder: values may come before it.

Legend:
[1] = target: recombinant human anti-hapten dinitrophenol (DNP) IgE (rhIgE) (human, UniProt P01854-1 1-428); test: cell-based or functional assay
[2] = target: T1, human IgE (human, UniProt P01854 1-428); test: ELISA, plate-coated IgE
T1 construct: written under the same molecule; also called IgE (Abcam ab65866); soluble IgE

[3] = target: T1, human IgE; test: ELISA, plate-coated IgE; remark: listed apart in the source
[4] = target: T1, human IgE; test: ELISA, human IgE coated
Protocol: (§1) The following day, plates were blocked with 1% BSA in PBS for 30 min-1 hour. […] Afterwards, the plates were PBST washed with the plate washer and detected with Peroxidase AffiniPure Donkey Anti-Human IgG, Fcγ fragment specific secondary detection antibody. Room temperature TMB was added and OD650 was measured using the Emax plate reader. […] Room temperature TMB was added and OD650 was measured using the Emax plate reader. The data was plotted and analyzed using GraphPad Prism analysis software.

[5] = target: T1, human IgE; test: ELISA, human IgE coated; remark: listed apart in the source
Protocol: as §1

[6] = target: human IgG2 (Athensresearch, 16-16-090707-2) (human, UniProt P01859-1 1-326 = IgG part); test: ELISA, human IgG2 coated
[7] = target: human IgE pre-complexed to FCER1A on the surface of human mast cells (human, UniProt P01854-1 1-428); test: flow cytometry on IgE-loaded human mast cells
[8] = target: T2, recombinant human FCER1A-His (ACRO FCA-H5228) (human, UniProt P12319 26-205); test: SPR, antibody alone injected over captured FCER1A
T2 construct: Bought protein; also called FceRIA; IgE receptor
T2 sequence: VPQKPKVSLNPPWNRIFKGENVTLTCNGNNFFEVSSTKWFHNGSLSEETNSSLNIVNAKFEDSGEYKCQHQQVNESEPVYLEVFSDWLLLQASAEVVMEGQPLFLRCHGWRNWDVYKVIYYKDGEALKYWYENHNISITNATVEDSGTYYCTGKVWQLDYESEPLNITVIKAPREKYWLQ
Protocol: (§2) All experiments were done using a Biacore T200 instrument with a CM5 chip at 25° C., Flow Cell (FC) 1 was used as the reference for FC2, and FC3 for FC4.
(§3) Anti-His antibody (1 mg/ml stock) was diluted (1:100 dilution, 0.01 mg/ml diluted concentration) in 10 mM sodium acetate buffer at pH 4.5 and immobilized onto FCs 1 and 2 to a level of ˜14000 RU, using the standard amine coupling chemistry. […] FCER1A (0.4 mg/ml stock concentration) was diluted ([…], ˜0.004 mg/ml diluted concentration) in PBS-P captured onto FC2 to levels of ˜130 RU. PBS-P was used as the capture running buffer. Overnight kinetics were performed for all analytes in the presence of PBS-P. The flow rate of all analyte solutions was maintained at 50 μL/min. The contact and dissociation times used were 120 seconds and 300 seconds, respectively. Glycine pH 1.5 was injected for 20 seconds for surface regeneration. This regeneration condition takes away all captured FCER1A. Therefore, fresh FCER1A was captured in the beginning of each injection cycle. […] All analytes were injected in duplicate. […] Sensorgrams from the overnight kinetics were plotted for further evaluation.

[9] = target: T3, human IgE pre-complexed to FceRII/CD23 on the surface of RPMI 8866 cells (human, UniProt P01854 1-428; P06734 1-321); test: flow cytometry, IgE-loaded RPMI 8866 cells
T3 construct: also called IgE:CD23 complexes; IgE in complex with CD23
Protocol: The washed cells were diluted to 0.8×10⁶ cells/mL. 50 μL of this cell suspension was then transferred to wells of a round-bottom 96-well assay plate (40 k cells/well). 50 μL of titrated test articles (diluted to 1 μM and titrated across 1:3 in FACS buffer) were added to the RPMI 8866 cells which produced a 2-fold dilution of the antibody concentrations from the titration series. The final starting concentration was 500 nM with a total of 11 points in the titration. […] The cells were incubated with secondary detection antibodies for 20 minutes then washed once, resuspended in 60 μL of FACS Buffer, and analyzed on a NovoCyte 3000 flow cytometer (ACEA Biosciences, Inc.).

[10] = target: T1, human IgE; test: ELISA, plate-coated IgE, apparent Kd (one site fit)
Source text: The data was plotted and analyzed using GraphPad Prism analysis software.

[11] = target: T1, human IgE; test: as above; remark: listed apart in the source
[12] = target: T4, chimeric cynomolgus monkey IgE (cynomolgus monkey (Macaca fascicularis)); test: ELISA, plate-coated cynomolgus IgE, apparent Kd (one site fit)
T4 construct: domain: CH1-4 constant domains; Generated in house in place of commercial cynomolgus IgE; also called cyno IgE

[13] = target: T1, human IgE; test: SPR, blocks binding of 5 nM IgE to captured FCER1A
Protocol: as §2, §3

[14] = target: T1, human IgE; test: ELISA, blocks binding of 5 nM IgE to coated FCER1A
Protocol: as §1

[15] = target: T1, human IgE; test: ELISA, blocks binding of 5 nM IgE to coated FCER1A; remark: listed apart in the source
Protocol: as §1

[16] = target: T1, human IgE; test: SPR, blocks binding of 5 nM IgE to captured FCER1A; remark: listed apart in the source
Protocol: All experiments were done using a Biacore T200 instrument with a CM5 chip at 37° C. except immobilization of Protein L, which was done at 25° C.
Sensorgrams from the overnight kinetics were plotted for further evaluation.

[17] = target: T1, human IgE; test: ELISA, blocks binding of 5 nM IgE to coated FCER2/CD23
Protocol: as §1

[18] = target: T5, CH2-4 constant domains of human IgE linked to a transmembrane protein, on 293 cells (human, UniProt P01854-1 104-428); test: flow cytometry, 293 cells expressing human IgE CH2-4
T5 construct: domain: CH2-4 constant domains; also called human IgE-expressing 293 cells
Protocol: (§4) First, 25 μg of DNA was added to Opti-MEM Reduced Serum Medium (Gibco) mixed with 75 μL of 40 kDa Polyethylenimine (PEI) for a final concentration of 1 μg DNA and 2.5 μg PEI per mL of culture volume. The plasmid DNA was allowed to pre-complex with PEI for 15 minutes before transferring the mixture to 25 mL of 293 cells in a shake flask at a density of 2×10⁶ cells/mL. […] Next, 50 μL of cells were transferred to wells of a round-bottom 96-well assay plate for a total of 50,000 293 cells per well. In a separate 96-well plate, monomeric VHH-hIgG1-Fc fusion proteins were titrated 1:5 in a 8-point dilution series starting at 1 μM in FACS Buffer with the 8th point containing no antibody. 50 μL from each antibody dilution was added to wells containing 50 μL of FACS Buffer with transfected 293 cells which produced a 2-fold dilution of the antibody concentrations from the dilution series resulting in a 500 nM final, starting concentration of the test article titration. The test articles and 293 cells were incubated together at 4° C. for 30 minutes. Next, the 96-well plates were centrifuged at 400×g for 5 minutes and the FACS buffer containing unbound antibody was decanted. Cells were washed 1× with 150 μL 4° C. FACS Buffer. […] The cells were incubated with the fluorophore conjugated detection antibody at 4° C. for 20 minutes. 293 cells were then centrifuged and washed once as described above. Cell pellets were resuspended in 30 μL FACS Buffer and analyzed on an iQue Screener Plus flow cytometer (Sartorius, IntelliCyt) with a 1 second sip time and 1 second void time. Mean fluorescent intensity was calculated using iQue onboard software gating on GFP+ or citrine+ cells.

[19] = target: T5, CH2-4 constant domains of human IgE …; test: as above; remark: listed apart in the source
Protocol: as §4

[20] = target: T5, CH2-4 constant domains of human IgE …; test: as above; remark: listed apart in the source
Protocol: as §4

[21] = target: T5, CH2-4 constant domains of human IgE …; test: as above; remark: listed apart in the source
Protocol: as §4

[22] = target: T5, CH2-4 constant domains of human IgE …; test: as above; remark: listed apart in the source
Protocol: as §4

[23] = target: T1, human IgE; test: SPR (Biacore T200, 25 C), IgE captured on protein L, antibody as analyte, 1:1 fit
Protocol: as §2
Protein L (15 mg/mL) was diluted (1:50 dilution, 0.3 mg/mL diluted concentration) in 10 mM sodium acetate buffer at pH 4.5 and immobilized onto FCs 1 and 2 to a level of ˜13000 RU, using the standard amine coupling chemistry. […] PBS-P was used as the capture running buffer. Overnight kinetics were performed for all analytes in the presence of PBS-P. The flow rate of all analyte solutions was maintained at 50 μL/min. The contact and dissociation times used were 120 seconds and 600 seconds, respectively. Glycine pH 2.0 was injected for 20 seconds for surface regeneration. This regeneration condition takes away all captured ligand. Therefore, fresh ligand solution was captured in the beginning of each injection cycle. Injected analyte concentrations are from 50 nM to 0.098 nM (two-fold dilutions). All analytes were injected in duplicate. Sensorgrams from the overnight kinetics were evaluated by using 1:1 kinetics model fitting.

T1 sequence (P01854 other isoform, or with tags, fused parts or gaps limits assumed, form in doubt): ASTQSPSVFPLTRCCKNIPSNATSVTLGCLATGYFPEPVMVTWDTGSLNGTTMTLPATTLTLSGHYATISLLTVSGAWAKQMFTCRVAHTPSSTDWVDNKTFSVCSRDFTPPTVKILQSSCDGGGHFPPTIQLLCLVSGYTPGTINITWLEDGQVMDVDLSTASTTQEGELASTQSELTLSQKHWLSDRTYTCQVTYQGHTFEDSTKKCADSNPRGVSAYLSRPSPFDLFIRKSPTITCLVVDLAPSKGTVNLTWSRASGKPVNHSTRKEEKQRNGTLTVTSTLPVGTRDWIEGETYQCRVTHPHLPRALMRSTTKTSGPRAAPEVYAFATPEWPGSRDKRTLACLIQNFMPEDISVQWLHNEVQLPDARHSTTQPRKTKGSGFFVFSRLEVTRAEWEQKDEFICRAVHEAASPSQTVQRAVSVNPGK
T5 sequence (P01854 other isoform, or with tags, fused parts or gaps): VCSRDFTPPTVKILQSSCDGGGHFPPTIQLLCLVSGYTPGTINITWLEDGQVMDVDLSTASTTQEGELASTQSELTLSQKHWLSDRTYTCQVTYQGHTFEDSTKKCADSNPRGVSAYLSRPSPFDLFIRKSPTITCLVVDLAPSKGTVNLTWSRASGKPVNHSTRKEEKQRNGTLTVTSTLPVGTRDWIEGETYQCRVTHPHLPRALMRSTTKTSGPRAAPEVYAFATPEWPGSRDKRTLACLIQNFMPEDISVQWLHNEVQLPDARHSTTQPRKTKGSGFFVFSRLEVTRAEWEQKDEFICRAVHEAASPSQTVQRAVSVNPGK
T3 sequence (P01854 other isoform, or with tags, fused parts or gaps, chain 1 of 2): as the sequence (P01854 other isoform, or with tags, fused parts or gaps limits assumed, form in doubt) above
T3 sequence (P06734 whole entry, chain 2 of 2): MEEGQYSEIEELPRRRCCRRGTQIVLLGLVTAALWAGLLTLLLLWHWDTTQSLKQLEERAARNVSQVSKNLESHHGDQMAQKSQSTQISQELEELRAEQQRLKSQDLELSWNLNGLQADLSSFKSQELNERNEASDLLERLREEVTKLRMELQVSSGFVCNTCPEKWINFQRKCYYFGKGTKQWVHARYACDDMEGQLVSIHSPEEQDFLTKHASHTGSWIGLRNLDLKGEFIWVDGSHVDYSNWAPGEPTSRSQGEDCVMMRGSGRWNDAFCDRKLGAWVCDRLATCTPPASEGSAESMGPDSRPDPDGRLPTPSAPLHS
human IgE pre-complexed to FCER1A on the surface of human mast cells, sequence (P01854 other isoform, or with tags, fused parts or gaps): as the sequence (P01854 other isoform, or with tags, fused parts or gaps limits assumed, form in doubt) above
recombinant human anti-hapten dinitrophenol (DNP) IgE (rhIgE), sequence (P01854 other isoform, or with tags, fused parts or gaps): as the sequence (P01854 other isoform, or with tags, fused parts or gaps limits assumed, form in doubt) above

Activation IC50 (nM), CD63 on mast cells [1]: 1.93 nM | Bmax (OD 650 nm) [2]: 0.814 OD 650 nm | Bmax (OD 650 nm) [3]: 0.946 OD 650 nm | Bmax [4]: 0.95 OD 650 | Kd [4]: 0.0585 nM | Bmax [5]: 1.2 OD 650 | Kd [5]: 0.123 nM | binding result [6]: no binding (tested: 250 nM) | binding result [8]: no binding (tested: 200 nM) | Bmax [9]: 15000 Mean APC-A | Kd [9]: 6.17 nM | Kd [10]: 0.102 nM | Kd [11]: 0.127 nM | Kd [12]: 0.288 nM | IC50 [13]: ~2.1 nM | IC50 [14]: 5.59 nM | IC50 [15]: 2.71 nM | IC50 [16]: ~3.2 nM | IC50 [17]: 0.604 nM
B1: cx10710, comprising IgG1 SELF Fc (antibody, V domains shown)
VH: QVQLQESGPGLVKPSETLSLTCAVSGYSITSGYSWNWIRQPPGKKLEWIGSITYDGSSNYNPSLKSRVTISRDTSKNQFSLKLSSVTAADTAVYYCARGSHYFGHWHFAVWGAGTLVTVSS
VL: DIQLTQSPSSLSASVGDRVTITCRASQSVDYDGDSYMNWYQQKPGQPPKLLIYAASYLGSEIPARFSGSGSGTDFTLTISSLQPEDFATYYCQQSHEDPYTFGAGTKLEIKR
notes: Conventional full length anti-IgE antibody with IgG1 SELF Fc; also called conventional antibody comparator; 710 (a derivative of Omalizumab); copies: 2 + 2
binding result [7]: no binding (tested: titrated from 1000 nM)

Bmax [18]: 1.36e+06 MFI | Kd [18]: 1.82 nM | Kd [19]: 1.82 nM | Bmax [20]: 866000 MFI | Kd [20]: 0.461 nM | Bmax [21]: 2.04e+06 MFI | Kd [21]: 0.872 nM | Bmax [22]: 1.17e+06 MFI | Kd [22]: 1.3 nM
B2: B10-NNT (Fc fusion)
VHH-Fc: EVQLVQSGGELVQAGGSLRLSCVASGLTFSSYNMGWLRQAPGKEREFVGMSGSSSTSTYYADSVKGRFTISRDNSKNTVYLQMNSLKPEDTAVYYCAARRMLSTYWSDRSWDFWGQGTQVTVKPGGPSVFLFPPKPKDTLMISRTPEVTCVVVDVSHEDPEVKFNWYVDGVEVHNAKTKPREEQYNSTYRVVSVLTVLHQDWLNGKEYKCKVSNKALPAPIEKTISKAKGQPREPQVYTLPPSRDELTKNQVNLTCLVKGFYPSDIAVEWESNGQPENNYKTTPPVLDSDGSFFLNSTLTVDKSRWQQGNVFSCSVMHEALHNHYTQKSLSLSPGK
notes: monomeric; also called parental B10 monomeric VHH-hIgG1-Fc fusion (Fc NNT)

Bmax (OD 650 nm) [2]: 0.742 OD 650 nm | binding result [8]: no binding (tested: 200 nM) | Kd [10]: 0.197 nM | IC50 [13]: ~2.4 nM | Kd [23]: 0.8 nM | koff [23]: 0.000288 s⁻¹ | kon [23]: 359000 M⁻¹ s⁻¹
B3: hzB10v14-IgG1 DSELF Fc region (cx12739) (Fc fusion)
chain: EVQLLESGGGEVQPGGSLRLSCVASGLTFSSYNMGWLRQAPGKEREFVGLSGSSSTSTYYADSVKGRFTISRDNSKNTVYLQMNSLKPEDTAVYYCAARRLLSTYWSDRSWDFWGQGTQVTVEPGGGGDKTHTCPPCPAPELLDGPSVFLFPPKPKDTLMISRTPEVTCVVVDVEHEDPEVKFNWYVDGVEVHNAKTKPREEQYNSTYRVVSVLTVLHQDWLNGKEYKCKVSNKAFPAPIEKTISKAKGQPREPQVYTLPPSREEMTKNQVSLTCLVKGFYPSDIAVEWESNGQPENNYKTTPPVLDSDGSFFLYSKLTVDKSRWQQGNVFSCSVMHEALHNHYTQKSLSLSPGK
notes: hzB10v14 VHH + GGGG linker + human IgG1 Fc with G236D/S267E/L328F; the Fc drives homodimer formation (bivalent); also called hzB10v14-DSELF; hzB10v14-IgG DSELF Fc
